Reference: paper PMC3285366

Target: T1, Mps1(1–239) (human), P33981
T1 chain: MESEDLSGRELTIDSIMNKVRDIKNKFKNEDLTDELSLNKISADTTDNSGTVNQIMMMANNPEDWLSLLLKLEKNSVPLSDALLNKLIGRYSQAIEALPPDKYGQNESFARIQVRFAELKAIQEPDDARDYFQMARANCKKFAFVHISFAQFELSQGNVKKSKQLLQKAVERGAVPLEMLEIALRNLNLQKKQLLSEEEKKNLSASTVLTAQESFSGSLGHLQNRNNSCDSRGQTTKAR
Assay: SEC
Settings: remark: other sources report otherwise

B1: Mps1(1–239), P33981 1-239 (domain or fragment)
chain: T1 chain
stoichiometry N: 2
